Entries after “also recorded” stand apart in the source; their conditions may differ.
Columns and labels:
MMP-9 = MMP-9 (Homo sapiens, UniProt P14780); experiment: ELISA binding, cross-reactivity
MMP-14 = MMP-14 (Homo sapiens, UniProt P50281); experiment: ELISA binding, cross-reactivity
CFPAC-1 cells [1] = experiment: Trans-well migration assay; type: cell-based, human; conditions: 15 h post treatment, sub-lethal concentrations
Protocol: Trans-well migration assay: Cells were starved overnight in assay media (IMDM media containing only 1% serum). Cells (1×10^5) were added to the top chambers of 24-well transwell plates (BD Biosciences; 8 μm pore size), and assay media, with or without GSM-192, was added to both chambers. […] The numbers of cells in five fields were counted under 20× magnification, and the mean for each chamber determined.
(§1) GSM-192 Fab reduces cell motility in vitro: MMP-7 mediated E-Cadherin cleavage promotes cell migration^19, so it was hypothesized that an effective anti MMP-7 antibody directed to the activated enzyme should be able to impact migration.

CFPAC-1 cells [2] = experiment: Wound healing assay (scratch assay); type: cell-based, human; conditions: 7 hours post treatment, vs control antibody GST
Protocol: Wound Healing Assay (Scratch Assay): The migratory behavior of cells was assayed by means of a wound-healing assay using a culture-insert (ibidi GmbH, Am Klopferspitz 19, Martinsried, Germany) according to the manufacturer's instruction. After 24 h the culture-inserts were removed leaving a cell-free gap (“defined as a wound”) of approx. 500 μm. The migration rate into this “wound area” was documented and measured using Carl Zeiss microscope (DeltaVision Microscopy Imaging Systems—GE Healthcare Life Sciences, USA). The migration rate was determined by percentage area covered by cells. Each analysis was performed in triplicates and was repeated two times.
as §1

panel of other MMPs = experiment: ELISA binding, panel of other MMPs
Protocol: MMP-7 Elisa binding assay: A 96-well plate (Nunc) was coated with MMP at […]. After coating, the plate was incubated with the GSM-192 at 25° C. for 1 h. The bound Fab fragment/full length was detected using a goat anti-Fab/anti-mouse antibody followed by peroxidase-conjugated bovine anti-goat antibody according to standard procedures. A four-parametric sigmoidal curve-fitting analysis was used to calculate the half-maximal effective concentration.

MMP-12 = MMP-12 (Homo sapiens, UniProt P39900); experiment: ELISA binding, cross-reactivity
Sequence of MMP-12 (P39900 106-470): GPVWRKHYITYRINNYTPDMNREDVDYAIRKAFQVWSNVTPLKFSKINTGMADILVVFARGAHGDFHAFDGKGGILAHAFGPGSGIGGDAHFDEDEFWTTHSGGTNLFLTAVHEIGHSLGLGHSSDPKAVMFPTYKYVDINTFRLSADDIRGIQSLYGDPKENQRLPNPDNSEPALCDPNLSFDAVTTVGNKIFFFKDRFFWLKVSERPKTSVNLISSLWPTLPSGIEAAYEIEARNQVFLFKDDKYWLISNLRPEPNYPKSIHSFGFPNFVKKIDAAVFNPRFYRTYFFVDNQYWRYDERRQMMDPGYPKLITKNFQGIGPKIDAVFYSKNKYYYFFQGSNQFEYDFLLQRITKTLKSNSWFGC

Sequence of MMP-9 (P14780 94-707, species assumed): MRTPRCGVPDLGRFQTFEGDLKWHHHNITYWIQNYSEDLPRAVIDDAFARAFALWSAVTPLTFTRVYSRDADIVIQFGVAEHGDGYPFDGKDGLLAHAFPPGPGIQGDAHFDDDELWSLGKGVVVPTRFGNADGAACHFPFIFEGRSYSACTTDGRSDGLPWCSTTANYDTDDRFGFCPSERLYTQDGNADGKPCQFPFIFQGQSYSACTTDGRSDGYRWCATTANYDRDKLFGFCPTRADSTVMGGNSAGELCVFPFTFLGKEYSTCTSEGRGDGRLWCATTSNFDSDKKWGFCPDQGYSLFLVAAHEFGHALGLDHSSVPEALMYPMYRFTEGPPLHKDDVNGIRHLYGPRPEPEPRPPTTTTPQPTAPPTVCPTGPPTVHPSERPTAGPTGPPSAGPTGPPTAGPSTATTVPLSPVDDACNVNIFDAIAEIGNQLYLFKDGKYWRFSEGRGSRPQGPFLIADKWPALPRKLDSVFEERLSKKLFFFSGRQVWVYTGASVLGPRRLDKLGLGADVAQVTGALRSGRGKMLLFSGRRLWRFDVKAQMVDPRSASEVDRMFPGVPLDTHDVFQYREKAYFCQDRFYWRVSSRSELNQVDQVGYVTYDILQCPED

crossreactivity to MMP-9 (MMP-9): did not show crossreactivity
crossreactivity to MMP-14 (MMP-14): did not show crossreactivity
binding to a panel of other MMPs (panel of other MMPs): did not bind effectively
crossreactivity to MMP-12 (MMP-12): did not show crossreactivity
B1: GSM-192: monoclonal antibody to MMP-7 binding the catalytic domain, not the zymogen; VL SEQ ID NO: 1, VH SEQ ID NO: 2 (antibody, V domains shown)
VH: EVQLQQSGPELVKPGASVKIPCKASGYTFTDYNMDWMKQSHGKSLEWIGHINPNNGGTFYNQKFKDKATFIVDKSSNTAYMELRSLTSEDTAVYFCARGGGLRRGPFAYWGQGTLVTVS
VL: DIVTQSPASLAVSLGQRATISCRASESFDSYGNTFVHWYQQKPGQPPKLLIYLVSNLESGVPAGFRGRGSRTDFTLTIDPVEADDAATYYCQQNNEDPYTFGGGTKLEIKRA
modifications: GSM-192 Heavy Chain Sequence; GSM-192 Light Chain Sequence
cells migrating across the transwell membrane (CFPAC-1 cells [1]): almost by half; also recorded: reduces cells migrating across the transwell membrane significantly
cell migration / rate of wound closure (CFPAC-1 cells [2]): significant reduction in rate of wound closure; also recorded: slowed down cell migration
